Experimental data as given in patent US20080287363A1.

Assays:
CCL5/RANTES [1] = biological target: CCL5/RANTES (UniProt P13501); assay: equilibrium competition receptor binding assay (SPA): inhibition of 0.1 nM 125I-RANTES binding to CHO/CCR5 membranes
CCL5/RANTES [2] = biological target: CCL5/RANTES (UniProt P13501); assay: equilibrium competition receptor binding assay (SPA): inhibition of 0.1 nM 125I-RANTES binding to CHO/CCR1 membranes

Chain of CCL5/RANTES (P13501 24-91 limits assumed): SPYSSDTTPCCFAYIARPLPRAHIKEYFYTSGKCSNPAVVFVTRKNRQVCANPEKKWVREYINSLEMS

With “recombinant Δ6 evasin-4 (truncated, N-terminally 6His tagged evasin-4, amino acids 24-127), purified” the IC50 (CCL5/RANTES [1]) was 3 nM and the IC50 (CCL5/RANTES [2]) was 7 nM.
